A short description of the data set: protein stability index of a GFP-peptide fusion (GPS, HEK-293T) (PSI 1-6); higher = more stable. The following applies: c terminus: a fixed tail appended.

± gives the standard deviation.
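Further: 24-mer peptide tiles fused after GFP, lentivirally expressed, FACS-sorted into six equal bins by GFP/DsRed ratio, decoded by Illumina sequencing, PSI is the read-weighted mean bin number.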

With FSDSRSNNDDDEDEDDEDEDEDED [TAF7L], the protein stability index by setting is: (treatment: DMSO) 5.7 ± 0.19; (treatment: MLN4924 1 uM, 8 h) 5.58 ± 0.41.
In the same order, the values of FSLACSLMGPSRMSLFSLYMVQDQ [M1AP] are 3.19 ± 0.42 and 2.99 ± 0.32.
On the same counts, the results for FTFLSAKCLQGNADGDGGGGQCCR [PCDHGC5] are 2.97 ± 0.18 and 3.29 ± 0.26.
In the same order, the values of FVIKMPVMYRIGCLRDDVVFFIYL [CLPTM1] are 3.05 ± 0.39 and 3.06 ± 0.25.
As to FYFENALSKSNKPIHTIILNPHVH [CAMK2D], the protein stability index by setting is: (treatment: DMSO) 2.01 ± 0.58; (treatment: MLN4924 1 uM, 8 h) 2.42 ± 0.044.
GAELHLQPLEGGTPNSAGGPGAHI [ADAMTS4] returned a protein stability index (treatment: DMSO) of 4.51 ± 1.1 and a protein stability index (treatment: MLN4924 1 uM, 8 h) of 4.74 ± 0.36.
Turning to GAGIIVTEAGGVLMDVTGGPFDLM [IMPA1], the protein stability index reads like this: (treatment: DMSO) 2.28 ± 0.4; (treatment: MLN4924 1 uM, 8 h) 2.48 ± 0.39.
In the same order, the values of GAPSPGSSDVSTAGTGASRSSHSS [ELF3] are 5.33 ± 0.29 and 5.32 ± 0.14.
In the same order, the values of GCASFIYLRPQSNYSSSQDALISV [OR10K2] are 2.65 ± 0.81 and 2.54 ± 0.61.
On the same counts, the results for GDPRPKIVWNKKGKKVSNQRFEVI [PTPRD] are 2.94 ± 0.24 and 3.46 ± 0.64.
For the sequence GEDEENREHRVRRIHVRRHITHDE [KCTD13], the protein stability index stood at 5.23 ± 0.2 (treatment: DMSO) and 5.1 ± 0.29 (treatment: MLN4924 1 uM, 8 h).
Turning to GEGRSRGSANDYKDTLGKGSSLSA [KRT71], the protein stability index by setting is: (treatment: DMSO) 4.65 ± 0.52; (treatment: MLN4924 1 uM, 8 h) 4.96 ± 0.35.
In the same order, the values of GFFEEKGAIFCPPCYDVRYAPSCA [PDLIM7] are 2.26 ± 0.22 and 2.58 ± 0.3.
In the case of GFTPDRLSSSCCHTVPDFHLSSPA [PLK2], the protein stability index is, setting by setting: (treatment: DMSO) 3.02 ± 0.22; (treatment: MLN4924 1 uM, 8 h) 3.15 ± 0.16.
For GGIETGSITEMFGEFRTGKTQICH [RAD51], the protein stability index is, setting by setting: (treatment: DMSO) 3.63 ± 0.34; (treatment: MLN4924 1 uM, 8 h) 3.71 ± 0.51.
On the same counts, the results for GGTPARSGTTLISVIVLDINDNAP [PCDHGC5] are 2.66 ± 1.1 and 2.64 ± 1.6.
On the same counts, the results for GHGYDSKKQQELTAAVLGLICEGL [ZBED1] are 2.34 ± 0.31 and 2.09 ± 0.29.
In the same order, the values of GHKRKQPLPKRVAKVPRPPSTLLP [FOXJ1] are 4.02 ± 0.49 and 3.86 ± 0.041.
For GIESMDQCRHTLEQHNWNIEAAVQ [FAF2], the protein stability index reads like this: (treatment: DMSO) 3.78 ± 0.2; (treatment: MLN4924 1 uM, 8 h) 4.08 ± 0.19.
As to GIMCLKRLNYDRKELEKRREESQH [PPFIA4], the protein stability index (treatment: DMSO) amounted to 3.69 ± 0.31 and the protein stability index (treatment: MLN4924 1 uM, 8 h) worked out at 3.62 ± 0.4.
In the same order, the values of GIQQLLQAEKRAAEKVSEARKRKN [ATP6V1G1] are 4.12 ± 0.62 and 3.84 ± 0.74.
On the same counts, the results for GKYDSGIPPYSRASLKGYQWLKDK [KCNAB2] are 3.26 ± 0.073 and 3.23 ± 0.24.
GLCKQDGQLRVFGAGLLSSISELK [TPH1] came in with a protein stability index (treatment: DMSO) of 2.05 ± 0.28 and a protein stability index (treatment: MLN4924 1 uM, 8 h) of 2.39 ± 0.4.
In the same order, the values of GLDVLLAQEVRPRRWKLQVLDLRK [PRAME] are 2.31 ± 0.46 and 2.33 ± 0.48.
On the same counts, the results for GLFVPSLLCGAAFGRLVANVLKSY [CLCN6] are 2.2 ± 0.55 and 2.37 ± 0.64.
On the same counts, the results for GLLLRGAVDGILHMFTPKLDKMLD [SLC6A17] are 2.35 ± 0.47 and 2.43 ± 0.66.
Turning to GLLQLDHRGLRCSWEGLAVLDSLL [RSAD1], the protein stability index reads like this: (treatment: DMSO) 2.31 ± 0.56; (treatment: MLN4924 1 uM, 8 h) 2.06 ± 0.31.
On the same counts, the results for GLLSKTAGFSPDCIMDDAINILQN [INTS4] are 2.91 ± 0.33 and 2.89 ± 0.17.
In turn, GLPSSELDAVENQLKWASWELHSL [ZNF24] gave a protein stability index (treatment: DMSO) of 2.98 ± 0.15 and a protein stability index (treatment: MLN4924 1 uM, 8 h) of 3 ± 0.38.

The values are drawn from the supplement of paper PMC10567573.
